Earlier results, collected in paper PMC3839795.

Biological target: Asp3 (position 2, ----SDNKTYG)
Test: NMR
Details: free peptide in solution (details not stated)

B1: Heptapeptide derived from turkey ovomucoid third domain (OMTKY3) (Meleagris gallopavo) (peptide)
chain: SDNKTYG
**Q.** For B1, which pKa is on record?
**A.** The pKa was “about 3.6”.
